This experiment has as its target skeletal muscle ryanodine receptor (RyR1) purified from sheep skeletal muscle, homotetramer (sheep (endogenous in skeletal muscle)). The experiment is described as follows: negative-stain TEM.

Take “skeletal muscle ryanodine receptor (RyR1) purified from sheep skeletal muscle, homotetramer”: the stoichiometry N (as a rule, a count of units in the complex or per binding partner) turned out to be 4.

These data come from paper PMC3504746.
